Measurements taken from patent US20100069815A1 (ASAHI KASEI, published 2010).

Target: T1, CD4 on CD4 positive cells in human peripheral blood (human, UniProt P01730 26-458)
T1 construct: whole, on cells; also called CD4 molecules
Experiment: cell adsorption from human whole blood on covalently immobilized binder (GMA grafted nonwoven fabric column); flow cytometry; mean ± SD of 3
Description: Immediately before the initiation of experiment, the PBS(−) solution was drained off by flowing air through the column. 5.0 ml of healthy human fresh blood containing ACD-A ([…] Laboratories) (blood:ACD-A=6.7:1) was fed from the inlet of the cell adsorber at a flow rate of 1.0 ml/min with a syringe pump. After discarding the first five drops, the treated blood was collected from the outlet of the column.
The CD4 positive cell removal rate at that time was calculated based on the change in the number of leukocytes measured by Coulter counter, and the change in the proportion of CD4 positive cells in the recovered cells measured by flow cytometry with use of a flow cytometer (FACS Calibur: Becton, Dickinson and Company). The cells were stained by the following manner. 100 μl of the collected blood was added with 10 μl of anti-CD4-PE solution (clone SK3, Becton, Dickinson and Company), 10 μl of anti-CD8-FITC solution (clone RPA-T8, Becton, Dickinson and Company), and 10 μl of anti-CD45-PerCP solution (Becton, Dickinson and Company). The resultant mixture was allowed to be stained at room temperature for 30 minutes, and then was added with 1 ml of FACS Lysing solution (Becton, Dickinson and Company) to effect hemolysis. CD45 positive cells were gated as leukocytes, and the proportion of CD4 positive cells therein was assayed.

B1: Leu3a scFv-Normal (scFv)
scFv: MADIVLTQSPASLAVSLGQRATISCKASQSVDYDGDSYMNWYQQKPGQPPKLLIYAASNLESGIPARFTGSGSGTDFTLNIHPVEEEDTATYYCQQSYEDPPTFAGGTNLEIKGGGGSGGGGSGGGGSMVHLQESEPELVKPGASVKMSCKASGYTFTDYVINWVKQRTGQGLEWIGETYTGSGSSYYNEKFKDKATLTVDKASNIAYMQLSSLTSEDSAVYFCARRGKGTGFAFWGQGTLVTVSAAAADYKDDDDKGSSEQKLISEEDLGSRSTHHHHHHGSTK
notes: Covalently immobilized on GMA grafted nonwoven fabric in the assay
  CD4 positive cell removal rate (%): 29.6%
